Results published in patent publication US12414933B2, “Polyphosphazene drug carriers” (ONSELEX PHARMACEUTICALS, INC., priority 2019, dated 2025).

Test system: Sprague-Dawley rats
Assay: Intravenous toxicity study: maximum tolerated dose after a single IV injection, 7-day observation
Assay type: in vivo, rat
Source text: The objective of this study was to determine the maximum tolerated dose in test animals following a single parenteral administration, in this case an intravenous (IV) injection, of the drug delivery compositions to Sprague-Dawley rats followed by a 7-day observation period.
In this Example, drug delivery compositions were optimized to carry and deliver the active chemotherapeutic agent Paclitaxel (PTX at about 5%). (See, Table 5 infra). Briefly, under sterile conditions in a laminar flow cabinet sterile water for formation and injection purposes was added to the appropriate amount of drug deliver composition to provide concentrations of 350, 817, 1167, and 1750 mg/mL. The diluted drug deliver compositions were stirred, mixed, or vortexed as necessary to achieve sufficient distribution. The prepared drug deliver compositions were stored protect from light at ambient temperature. The final formulation for each concentration was passed through a 0.2 μm filter prior to administration. The target volume prepared for each dose was 1.55 mL. The actual volume dispensed post-filtering was recorded. Final formulations for administration can be used up to 4 hours after preparation.
Subjects in this Example consisted of age appropriate to weight intact male Sprague-Dawley rats. Various commercial sources of Sprague-Dawley rats are acceptable for supply of Subject animals. Maximum Subject animal weight at initiation of the administrations was 330 gm while minimum weight was 260 gm. Subject animals were housed, feed, provided watered ad libitum, and observed according to standard animal husbandry protocols. Subject animals were excluded for any observable disease or injury that could affect study outcome. […]

Substance: [NP(MPEG550)3(Lys-OEt)(AA)(PTX)]n [PETTAX-121]
- Clinical results: morbidity / euthanasia (Group 4: single slow bolus IV 8750 mg/kg PETTAX-121 (PTX 437.5 mg/kg), 1 male rat): euthanized 20 hours after administration due to observed morbidity
- Clinical results: tolerability / adverse reactions (Groups 1-3: single slow bolus IV 1750, 4083 and 5833 mg/kg PETTAX-121 (PTX 87.5, 204.2, 291.7 mg/kg), 1 male rat per group, 7-day observation): tolerated their respective administration well with no observed adverse reactions or clinically significant observations
- Clinical results: physical changes (Groups 1-3: single slow bolus IV 1750, 4083 and 5833 mg/kg PETTAX-121, 1 male rat per group, 7-day observation): no significant physical changes
